Laboratory results reported in article PMC9482650, “Quantitative fragmentomics allow affinity mapping of interactomes” (Nature Communications, 2022).

Key:
Assay in all cases: holdup assay
Set-up in all cases: key: below the threshold = too weak to quantify, mostly under pKd 3.1 to 4
Conditions in all cases: plain residues with an end cap or a label only (N-terminal biotin on a linker: ado-ado)
MPDZ_12, O75970 = biological target: T1, MPDZ_12, O75970
T1 sequence (O75970 1857-1958, limits assumed, looked up): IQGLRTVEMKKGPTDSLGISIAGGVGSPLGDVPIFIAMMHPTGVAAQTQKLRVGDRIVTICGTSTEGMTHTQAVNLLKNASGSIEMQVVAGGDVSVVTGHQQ

GRID2IP_1, A4D2P6 = biological target: GRID2IP_1, A4D2P6
SIPA1L2, Q9P2F8 = biological target: T2, SIPA1L2, Q9P2F8
T2 sequence (Q9P2F8 945-1036, limits assumed, looked up): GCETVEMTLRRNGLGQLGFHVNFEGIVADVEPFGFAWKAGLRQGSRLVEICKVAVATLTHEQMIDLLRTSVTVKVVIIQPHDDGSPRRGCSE

DLG1_3, Q12959 = biological target: DLG1_3, Q12959
NHERF4_4, Q86UT5 = biological target: NHERF4_4, Q86UT5
MPDZ_5, O75970 = biological target: T3, MPDZ_5, O75970
T3 sequence (O75970 695-796, limits assumed, looked up): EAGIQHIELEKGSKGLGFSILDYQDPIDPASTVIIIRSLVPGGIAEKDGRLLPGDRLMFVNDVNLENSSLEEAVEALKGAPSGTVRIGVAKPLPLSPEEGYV

DLG3_1, Q92796 = biological target: T4, DLG3_1, Q92796
T4 sequence (Q92796 125-227, limits assumed, looked up): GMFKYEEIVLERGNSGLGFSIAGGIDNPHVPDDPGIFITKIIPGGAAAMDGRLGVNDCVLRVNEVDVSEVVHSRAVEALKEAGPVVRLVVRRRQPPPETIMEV

SNTG2, Q9NY99 = biological target: T5, SNTG2, Q9NY99
T5 sequence (Q9NY99 68-166, limits assumed, looked up): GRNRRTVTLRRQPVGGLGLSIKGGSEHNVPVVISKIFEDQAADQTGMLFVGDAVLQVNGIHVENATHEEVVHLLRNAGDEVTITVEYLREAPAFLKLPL

SCRIB_1, Q14160 = biological target: SCRIB_1, Q14160
TJP1_3, Q07157 = biological target: TJP1_3, Q07157
Inadl_3, Q8NI35 = biological target: Inadl_3, Q8NI35
DLG3_2, Q92796 = biological target: T6, DLG3_2, Q92796
T6 sequence (Q92796 221-321, limits assumed, looked up): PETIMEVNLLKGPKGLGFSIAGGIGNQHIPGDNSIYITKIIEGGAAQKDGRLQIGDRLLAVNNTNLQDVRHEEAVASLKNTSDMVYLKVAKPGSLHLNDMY

DFNB31_1, Q9P202 = biological target: T7, DFNB31_1, Q9P202
T7 sequence (Q9P202 135-233, limits assumed, looked up): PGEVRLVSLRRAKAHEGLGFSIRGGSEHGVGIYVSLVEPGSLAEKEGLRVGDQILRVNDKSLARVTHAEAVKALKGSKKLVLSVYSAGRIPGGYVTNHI

AHNAK1, Q09666 = biological target: AHNAK1, Q09666
NHERF3_3, Q5T2W1 = biological target: T8, NHERF3_3, Q5T2W1
T8 sequence (Q5T2W1 238-333, limits assumed, looked up): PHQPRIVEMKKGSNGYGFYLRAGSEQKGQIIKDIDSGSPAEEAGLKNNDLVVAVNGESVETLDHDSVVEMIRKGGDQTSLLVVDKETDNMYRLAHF

FRMPD2_3, Q68DX3 = biological target: FRMPD2_3, Q68DX3
SNX27, Q96L92 = biological target: SNX27, Q96L92
LIN7B, Q9HAP6 = biological target: T9, LIN7B, Q9HAP6
T9 sequence (Q9HAP6 88-185, limits assumed, looked up): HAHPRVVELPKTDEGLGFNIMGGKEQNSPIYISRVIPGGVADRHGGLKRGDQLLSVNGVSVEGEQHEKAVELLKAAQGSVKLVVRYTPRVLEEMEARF

PDZRN3_1, Q9UPQ7 = biological target: T10, PDZRN3_1, Q9UPQ7
T10 sequence (Q9UPQ7 244-349, limits assumed, looked up): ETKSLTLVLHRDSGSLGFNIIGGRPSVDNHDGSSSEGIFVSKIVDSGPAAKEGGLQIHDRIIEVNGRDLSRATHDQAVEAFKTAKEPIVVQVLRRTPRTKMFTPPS

RAPGEF6, Q8TEU7 = biological target: T11, RAPGEF6, Q8TEU7
T11 sequence (Q8TEU7 525-625, limits assumed, looked up): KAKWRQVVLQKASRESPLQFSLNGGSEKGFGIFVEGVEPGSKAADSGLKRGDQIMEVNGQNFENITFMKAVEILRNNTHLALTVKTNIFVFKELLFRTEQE

NHERF4_2, Q86UT5 = biological target: NHERF4_2, Q86UT5
Inadl_5, Q8NI35 = biological target: Inadl_5, Q8NI35
MPDZ_10, O75970 = biological target: T12, MPDZ_10, O75970
T12 sequence (O75970 1624-1722, limits assumed, looked up): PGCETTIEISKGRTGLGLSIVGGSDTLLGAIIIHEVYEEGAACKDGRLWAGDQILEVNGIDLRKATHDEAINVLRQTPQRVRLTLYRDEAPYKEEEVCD

LDB3, O75112 = biological target: LDB3, O75112
Sequence of LDB3, O75112 (O75112 1-94): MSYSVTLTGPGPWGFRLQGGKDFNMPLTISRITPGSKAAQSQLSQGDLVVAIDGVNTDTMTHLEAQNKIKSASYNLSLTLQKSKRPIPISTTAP

Sequence of AHNAK1, Q09666 (Q09666 4-100): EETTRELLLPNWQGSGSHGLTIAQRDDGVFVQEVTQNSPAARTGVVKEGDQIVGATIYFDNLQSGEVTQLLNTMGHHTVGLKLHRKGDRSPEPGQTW
Sequence of Inadl_5, Q8NI35 (Q8NI35 673-780): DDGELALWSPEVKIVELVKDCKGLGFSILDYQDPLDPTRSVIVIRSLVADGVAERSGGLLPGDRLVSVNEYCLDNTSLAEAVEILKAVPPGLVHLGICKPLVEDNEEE
Sequence of FRMPD2_3, Q68DX3 (Q68DX3 1073-1166): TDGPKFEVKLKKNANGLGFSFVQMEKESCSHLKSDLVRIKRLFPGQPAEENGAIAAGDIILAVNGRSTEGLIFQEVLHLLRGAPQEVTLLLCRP
Sequence of NHERF4_4, Q86UT5 (Q86UT5 464-550): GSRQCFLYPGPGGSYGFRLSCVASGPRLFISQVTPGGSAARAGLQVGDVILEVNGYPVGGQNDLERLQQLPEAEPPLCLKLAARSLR
Sequence of TJP1_3, Q07157 (Q07157 416-512): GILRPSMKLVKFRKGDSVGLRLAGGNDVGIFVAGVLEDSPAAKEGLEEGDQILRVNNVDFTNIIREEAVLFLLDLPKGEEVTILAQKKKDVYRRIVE
Sequence of NHERF4_2, Q86UT5 (Q86UT5 220-308): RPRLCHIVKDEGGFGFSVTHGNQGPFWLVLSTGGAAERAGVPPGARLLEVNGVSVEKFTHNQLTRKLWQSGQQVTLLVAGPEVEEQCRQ
Sequence of DLG1_3, Q12959 (Q12959 457-571): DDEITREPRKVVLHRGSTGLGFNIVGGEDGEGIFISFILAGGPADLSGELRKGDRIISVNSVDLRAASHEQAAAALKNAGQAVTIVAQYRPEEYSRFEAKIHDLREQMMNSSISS
Sequence of Inadl_3, Q8NI35 (Q8NI35 359-469): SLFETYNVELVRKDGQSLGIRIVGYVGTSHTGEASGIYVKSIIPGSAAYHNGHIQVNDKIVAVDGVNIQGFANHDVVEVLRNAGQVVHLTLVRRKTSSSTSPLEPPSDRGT
Sequence of SCRIB_1, Q14160 (Q14160 718-814): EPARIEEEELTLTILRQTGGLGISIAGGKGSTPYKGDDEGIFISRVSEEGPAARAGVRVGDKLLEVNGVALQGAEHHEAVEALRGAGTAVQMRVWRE
Sequence of GRID2IP_1, A4D2P6 (A4D2P6 1-87): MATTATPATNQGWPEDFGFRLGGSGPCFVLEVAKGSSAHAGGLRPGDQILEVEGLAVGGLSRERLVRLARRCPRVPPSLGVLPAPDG

| Binder | pKd (MPDZ_12, O75970) | pKd (GRID2IP_1, A4D2P6) | pKd (SIPA1L2, Q9P2F8) | pKd (DLG1_3, Q12959) | pKd (NHERF4_4, Q86UT5) | pKd (MPDZ_5, O75970) | pKd (DLG3_1, Q92796) | pKd (SNTG2, Q9NY99) | pKd (SCRIB_1, Q14160) | pKd (TJP1_3, Q07157) | pKd (Inadl_3, Q8NI35) | pKd (DLG3_2, Q92796) | pKd (DFNB31_1, Q9P202) | pKd (AHNAK1, Q09666) | pKd (NHERF3_3, Q5T2W1) | pKd (FRMPD2_3, Q68DX3) | pKd (SNX27, Q96L92) | pKd (LIN7B, Q9HAP6) | pKd (PDZRN3_1, Q9UPQ7) | pKd (RAPGEF6, Q8TEU7) | further results |
| --- | --- | --- | --- | --- | --- | --- | --- | --- | --- | --- | --- | --- | --- | --- | --- | --- | --- | --- | --- | --- | --- |
| DPAESMESLV [PTPRG, P23470] | below the threshold | below the threshold | below the threshold | below the threshold | 3.75 | below the threshold | 4.23 | 4.24 | below the threshold | below the threshold | 4.08 | 4.72 | below the threshold | below the threshold | below the threshold | below the threshold | 5.42 | below the threshold | 3.96 | below the threshold | pKd (NHERF4_2, Q86UT5): below the threshold; pKd (Inadl_5, Q8NI35): below the threshold; pKd (MPDZ_10, O75970): below the threshold; pKd (LDB3, O75112): below the threshold |
| EIPAQSPTCV [FZD10, Q9ULW2] | below the threshold | 3.72 | 3.69 | 4 | below the threshold | below the threshold | 3.72 | 3.85 | 3.81 | 3.65 | 3.62 | 3.88 | 3.67 | 3.57 | 3.57 | 3.77 | 4.08 | below the threshold | below the threshold | below the threshold | pKd (NHERF4_2, Q86UT5): below the threshold; pKd (Inadl_5, Q8NI35): below the threshold; pKd (MPDZ_10, O75970): 3.89; pKd (LDB3, O75112): below the threshold |
| DFLSTFHIRI [CIB2, O75838] | below the threshold | below the threshold | below the threshold | below the threshold | 4.58 | below the threshold | below the threshold | 3.62 | below the threshold | below the threshold | 4.49 | 3.97 | 3.55 | below the threshold | below the threshold | below the threshold | below the threshold | 3.67 | below the threshold | below the threshold | pKd (NHERF4_2, Q86UT5): below the threshold; pKd (Inadl_5, Q8NI35): below the threshold; pKd (MPDZ_10, O75970): below the threshold; pKd (LDB3, O75112): below the threshold |
| TISFTQTSQF [SLC1A1, P43005] | below the threshold | below the threshold | below the threshold | below the threshold | below the threshold | below the threshold | below the threshold | below the threshold | 3.5 | below the threshold | below the threshold | 4.08 | below the threshold | below the threshold | below the threshold | below the threshold | 5.06 | below the threshold | below the threshold | below the threshold | pKd (NHERF4_2, Q86UT5): below the threshold; pKd (Inadl_5, Q8NI35): below the threshold; pKd (MPDZ_10, O75970): below the threshold; pKd (LDB3, O75112): 3.58 |
